Biological target: human fibrinogen (UniProt P02671)

Substance	fibrin gel formation by primed hMSCs (confocal microscopy, Alexa-594-tagged fibrinogen)	fibrin formation, absorbance at 600 nm
[cThrombin][S]	[cThrombin][S] bound to cell membranes was able to cleave fibrinogen to form a fibrin gel	–
cationised thrombin	–	During cationisation, the activity of thrombin was retained up to 120 minutes of cationisation, although the activity was gradually decreased with increased cationisation duration
